B1: SEQ ID NO 949 (designed binder)
chain: MGSWWEFNVRLSAIRYRLLALGGSEAELAAFEKEIAAFESELQAYKGKGNPEVEDLRASAAQIRAMLQAYRHN
B2: SEQ ID NO 950 (designed binder)
chain: B1 chain with V9M, R15K, L19Y, D55I, A58R, S59L, Q62D, A65E, M66R
B3: SEQ ID NO 946 (designed binder)
chain: MGSWYEFDIRLEAIKYRLSALGGSEAELAAFEKEIAAFESELQAYKGKGNPEVEYLRKKAAVIRSMLQAYRHN
B4: SEQ ID NO 948 (designed binder)
chain: B1 chain with S12Q, R15K, L19S, A58K, S59T, Q62H, A65W, M66Q
B5: SEQ ID NO 947 (designed binder)
chain: B3 chain with Y5W, D8R, K15W, S19H, Y55D, K58I, K59F, V62N, M66K

Residue numbers refer to the chain shown, from its start.

The values below come from patent US20230125550A1 (ARCELLX, published 2023).

The experiment has as its target HER2 (Homo sapiens (Human), UniProt P04626 23-652). Kind of experiment: phage ELISA, A450 target/A450 IgG1-Fc. The procedure, abridged: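 Phage were rescued in 96-well format with VCSM13 helper phage from individual phagemid colonies picked from panning output. Plates were coated with 1.3 microg/ml goat anti-human IgG1-Fc antibody, then 5 nM recombinant human target or IgG1-Fc, then 50 microl phage diluted 5× in ELISA blocking buffer. Binding was detected with HRP-conjugated anti-M13 antibody at 450 nm. The ELISA ratio is target over IgG1-Fc absorbance, averaged across all screened wells holding that clone.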
(In general: In an ELISA, binding on a coated surface is turned into a signal by an enzyme label.)
On to B1, for which the ELISA_avg worked out at 6.73 ratio.

B2: the ELISA_avg was determined as 3.08 ratio.

With B3, the ELISA_avg was 5.35 ratio.

Molecule B4 had an ELISA_avg of 5.23 ratio.

As for B5, the ELISA_avg worked out at 8.04 ratio.
